# Results published in US20240116985A1, “STAPLED PEPTIDES AND METHODS THEREOF” (priority 2020, published 2024).
# Starred links: 1 amine or outer side, 2 acyl side, 3 side chain; linkers in the order of their positions; H or OH if unused. Positions of bridges follow the written chain, without caps; N, C: chain ends. Non-standard residues stand in square brackets, D forms with d. Primed or numbered codes have the meaning given here. *: point of attachment. PyrS2″ = (S)-3-amino-1-((pent-4-en-1-yloxy)carbonyl)pyrrolidine-3-carboxylic acid (stapling residue), C=CCCCOC(=O)N1CC[C@@](N[*:1])(C(=O)[*:2])C1; B5(4) = 2,2-bis(4-pentenyl)glycine = 2-amino-2-(pent-4-en-1-yl)hept-6-enoic acid (stitching residue), C=CCCCC(CCCC=C)(N[*:1])C(=O)[*:2]; B5(5) = 2,2-bis(4-pentenyl)glycine, 2-amino-2-(pent-4-en-1-yl)hept-6-enoic acid (stitching residue), C=CCCCC(CCCC=C)(N[*:1])C(=O)[*:2]; B5(33) = 2-amino-2-(pent-4-en-1-yl)hept-6-enoic acid (bis-pentenylglycine, two olefin side chains), C=CCCCC(CCCC=C)(N[*:1])C(=O)[*:2]; PyrS2 = (S)-3-amino-1-((pent-4-en-1-yloxy)carbonyl)pyrrolidine-3-carboxylic acid, C=CCCCOC(=O)N1CC[C@@](N[*:1])(C(=O)[*:2])C1; (Me2diaminobutane)GlnR = N5-methyl-N5-(4-(methylamino)butyl)-L-glutamine, CN(CCCCN(C)[*:3])C(=O)CC[C@H](N[*:1])C(=O)[*:2]; 5IndA = (S)-2-amino-3-(2,3-dihydro-1H-inden-5-yl)propanoic acid, O=C([C@H](Cc1ccc2c(c1)CCC2)N[*:1])[*:2]; (NMe2)GlnR″ = [NMe2]GlnR: N5,N5-dimethyl-L-glutamine, CN(C)C(=O)CC[C@H](N[*:1])C(=O)[*:2]; B5(3) = 2,2-bis(4-pentenyl)glycine (stitching residue), C=CCCCC(CCCC=C)(N[*:1])C(=O)[*:2]; S10 = (S)-2-amino-2-methyldodec-11-enoic acid, C=CCCCCCCCC[C@](C)(N[*:1])C(=O)[*:2]; (NMe2)GlnR = N5,N5-dimethyl-L-glutamine, CN(C)C(=O)CC[C@H](N[*:1])C(=O)[*:2]; mPEG2 = N-terminal 3-(2-methoxyethoxy)propanoic acid, COCCOCCC(=O)*; Phe(3-COOH) = N[C@@H](Cc1cccc(C(=O)O)c1)C(=O)O; Phe(2-CF3) = N[C@@H](Cc1ccccc1C(F)(F)F)C(=O)O; Phe(3,4-Me2) = Cc1ccc(C[C@H](N)C(=O)O)cc1C; Phe(2-Cl) = N[C@@H](Cc1ccccc1Cl)C(=O)O; 2Nal = N[C@@H](Cc1ccc2ccccc2c1)C(=O)O; Bta = N[C@@H](Cc1csc2ccccc12)C(=O)O; Isobutyloxycarbonyl = CC(C)COC(=O)*; αAllylPro = C=CC[C@@]1(C(=O)O)CCCN1; tBuAla = CC(C)(C)C[C@H](N)C(=O)O; 3Thi = N[C@@H](Cc1ccsc1)C(=O)O; S8 = C=CCCCCCC[C@](C)(N)C(=O)O; Thr(ol) = C[C@@H](O)[C@H](N)CO; Propanoyl(3-OMe) = COCCC(=O)*; Leu(ol) = CC(C)C[C@H](N)CO; 2F3MeF″ = Phe derivative; Octanoyl = CCCCCCCC(=O)*
# Target: Bcat-Halo (UniProt P35222)
# Assay: NanoBRET Abs IC50, HEK293 cells, Bcat-Halo / TCF4-Luc
# Chain of Bcat-Halo (P35222 whole entry): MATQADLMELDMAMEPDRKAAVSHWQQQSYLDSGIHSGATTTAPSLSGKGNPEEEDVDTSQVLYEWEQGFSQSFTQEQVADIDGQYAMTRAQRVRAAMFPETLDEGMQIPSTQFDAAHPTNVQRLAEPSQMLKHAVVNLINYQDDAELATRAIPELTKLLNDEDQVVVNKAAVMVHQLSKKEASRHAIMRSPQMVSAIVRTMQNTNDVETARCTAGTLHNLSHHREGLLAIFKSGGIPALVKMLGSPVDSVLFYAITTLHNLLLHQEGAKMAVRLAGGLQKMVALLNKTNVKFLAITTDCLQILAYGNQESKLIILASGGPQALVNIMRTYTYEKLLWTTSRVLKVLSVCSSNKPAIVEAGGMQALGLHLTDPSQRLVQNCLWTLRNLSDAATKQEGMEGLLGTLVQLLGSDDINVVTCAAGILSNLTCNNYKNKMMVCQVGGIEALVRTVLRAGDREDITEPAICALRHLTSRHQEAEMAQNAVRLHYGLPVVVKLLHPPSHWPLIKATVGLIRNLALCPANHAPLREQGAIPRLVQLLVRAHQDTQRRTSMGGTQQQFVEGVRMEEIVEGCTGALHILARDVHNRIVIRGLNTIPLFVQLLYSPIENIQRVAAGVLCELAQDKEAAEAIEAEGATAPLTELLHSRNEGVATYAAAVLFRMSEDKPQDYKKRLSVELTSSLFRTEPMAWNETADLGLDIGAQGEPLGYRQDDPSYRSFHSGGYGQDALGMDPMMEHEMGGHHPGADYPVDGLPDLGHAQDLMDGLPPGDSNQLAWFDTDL
row,Binder,IC50 [nM]
1,"Ac-[αAllylPro]D[tBuAla][B5(4)]D[Phe(3-COOH)]QAFL[PyrS2″][Phe(2-CF3)][5IndA]A-NH2 (staple 1-4, 4-11) [I-2298]",4600
2,"Ac-[αAllylPro]D[tBuAla][B5(4)]D[Phe(3-COOH)][(NMe2)GlnR]AFV[PyrS2″][3Thi][Bta]A-NH2 (staple 1-4, 4-11) [I-2303]",1200
3,"Ac-[αAllylPro]D[tBuAla][B5(4)]D[Phe(3-COOH)]QAFL[PyrS2][Phe(2-CF3)][Phe(3,4-Me2)]A-NH2 (staple 1-4, 4-11) [I-2294]",4600
4,"Ac-[αAllylPro]D[tBuAla][B5(4)]D[Phe(3-COOH)][(Me2diaminobutane)GlnR]AFV[PyrS2″][3Thi][Bta]A-NH2 (staple 1-4, 4-11) [I-2301]",> 20000
5,"Ac-[αAllylPro]D[tBuAla][B5(4)]D[Phe(3-COOH)]QAFV[PyrS2][3Thi][5IndA]A-NH2 (staple 1-4, 4-11) [I-2296]",5100
6,"Ac-[αAllylPro]D[tBuAla][B5(4)]D[Phe(3-COOH)][(NMe2)GlnR″]AFL[PyrS2″][2F3MeF″][Bta][(NMe2)GlnR″]-NH2 (staple 1-4, 4-11) [I-2300]",1200
7,"Ac-[αAllylPro]D[tBuAla][B5(4)]D[Phe(3-COOH)][(NHEt)GlnR]AFL[PyrS2″][2F3MeF″][Bta][(NHEt)GlnR]-NH2 (staple 1-4, 4-11) [I-2299]",5200
8,"Ac-[αAllylPro]D[tBuAla][B5(4)]D[Phe(3-COOH)][(NHEt)GlnR]AFV[PyrS2″][3Thi][Bta]A-NH2 (staple 1-4, 4-11) [I-2302]",2500
9,"Isobutyloxycarbonyl-[αAllylPro]D[tBuAla][B5(4)]D[Phe(3-COOH)]AAFL[PyrS2″][Phe(2-Cl)][Bta]A-NH2 (staple 1-4, 4-11) [I-2305]",> 20000

# Target: full-length beta-Catenin (Uniprot ID P35222) (Homo sapiens (Human)) (UniProt P35222)
# Assay: fluorescence polarization competition, competitor 5FAM-TCF4 10-53
# Target sequence in this assay (P35222 2-781 limits assumed): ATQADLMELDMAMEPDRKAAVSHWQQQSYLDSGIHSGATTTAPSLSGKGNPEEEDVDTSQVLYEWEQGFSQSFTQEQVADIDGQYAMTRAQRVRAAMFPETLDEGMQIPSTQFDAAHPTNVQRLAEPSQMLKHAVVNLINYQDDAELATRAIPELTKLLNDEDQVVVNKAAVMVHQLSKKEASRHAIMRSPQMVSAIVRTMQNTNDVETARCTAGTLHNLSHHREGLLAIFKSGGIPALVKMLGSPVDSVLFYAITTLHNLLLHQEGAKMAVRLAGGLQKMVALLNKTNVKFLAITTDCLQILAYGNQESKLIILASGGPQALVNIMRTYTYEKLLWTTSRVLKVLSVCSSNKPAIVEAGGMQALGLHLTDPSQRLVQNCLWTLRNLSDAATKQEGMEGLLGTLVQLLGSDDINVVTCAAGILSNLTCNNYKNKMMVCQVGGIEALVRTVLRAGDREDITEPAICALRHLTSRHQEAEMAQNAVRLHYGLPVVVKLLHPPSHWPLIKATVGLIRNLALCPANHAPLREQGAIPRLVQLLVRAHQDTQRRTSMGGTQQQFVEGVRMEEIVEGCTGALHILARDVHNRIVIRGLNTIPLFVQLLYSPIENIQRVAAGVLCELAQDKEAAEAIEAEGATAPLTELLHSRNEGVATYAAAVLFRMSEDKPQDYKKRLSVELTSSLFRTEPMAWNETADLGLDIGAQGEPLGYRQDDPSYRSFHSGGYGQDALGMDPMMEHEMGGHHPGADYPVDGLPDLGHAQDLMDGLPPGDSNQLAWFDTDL
row,Binder,IC50 [nM]
1,XDXXDDAAFTXFXT (not fully specified; as printed: Ac-PL3-Asp-Npg-B5-Asp-Asp-Ala-Ala-Phe-Thr-S10-2C1F-BztA-Thr-NH2; stapled) [I-1262],1120
2,XDXXDDAAFTXFXQ (not fully specified; as printed: MeOPr-PL3-Asp-Npg-B5-Asp-Asp-Ala-Ala-Phe-Thr-S8-2C1F-BztA-Gln-NH2; stapled) [I-1261],31
3,Ac-[αAllylPro]D[tBuAla][B5(3)]DTAA[2Nal]T[PyrS2″]F[Bta]S-NH2 (staple 1-4; staple 4-11 (inferred); not fully specified; printed as Ac-PL3-Asp-Npg-B5-Asp-Thr-Ala-Ala-2NapA-Thr-PyrS2-Phe-BztA-Ser-NH2) [I-1267],181
4,"Octanoyl-[αAllylPro]D[tBuAla][B5(4)]DDAAFT[S8][Phe(2-Cl)][Bta]Q-NH2 (staple 1-4, 4-11) [I-1254]",530
5,"mPEG2-[αAllylPro]D[tBuAla][B5(4)]DDAAFT[S8][Phe(2-Cl)][Bta]Q-NH2 (staple 1-4, 4-11) [I-1255]",32
6,"Ac-[αAllylPro]D[tBuAla][B5(33)]DTAAFT[PyrS2]F[Bta]S-NH2 (staple 1-4, 4-11 (inferred); not fully specified; printed as Ac-PL3-Asp-Npg-B5-Asp-Thr-Ala-Ala-Phe-Thr-PyrS2-Phe-BztA-Ser-NH2) [I-1263]",43
7,"Ac-[αAllylPro]D[tBuAla][B5(4)]DDAAFL[PyrS2″][Phe(2-Cl)][Bta][Leu(ol)] (staple 1-4, 4-11) [I-1251]",1940
8,"Ac-[αAllylPro]D[tBuAla][B5(4)]DDAAFL[PyrS2″][Phe(2-Cl)][Bta][Thr(ol)] (staple 1-4, 4-11) [I-1249]",17

# Target: full-length beta-Catenin (Uniprot ID P35222) (Homo sapiens (Human)) (UniProt P35222)
# Assay: FP competition: displacement of 5FAM-TCF4(10-53) from full-length beta-catenin
# Target sequence in this assay (P35222 whole entry, one chain of several): as the sequence (P35222 whole entry) above
row,Binder,EC50 [nM]
1,"Octanoyl-[αAllylPro]D[tBuAla][B5(4)]DDAAFT[S8][Phe(2-Cl)][Bta]Q-NH2 (staple 1-4, 4-11) [I-1254]",530
2,"mPEG2-[αAllylPro]D[tBuAla][B5(4)]DDAAFT[S8][Phe(2-Cl)][Bta]Q-NH2 (staple 1-4, 4-11) [I-1255]",32
3,"Ac-[αAllylPro]D[tBuAla][B5(4)]DDAAFL[PyrS2″][Phe(2-Cl)][Bta][Leu(ol)] (staple 1-4, 4-11) [I-1251]",1940
4,"Ac-[αAllylPro]D[tBuAla][B5(4)]DDAAFL[PyrS2″][Phe(2-Cl)][Bta][Thr(ol)] (staple 1-4, 4-11) [I-1249]",17

# Target: full-length beta-Catenin (Uniprot ID P35222) (Homo sapiens (Human)) (UniProt P35222)
# Assay: fluorescence polarization competition; full-length beta-catenin + 5FAM-TCF4(10-53) probe
# Target sequence in this assay (P35222 whole entry, one chain of several): as the sequence (P35222 whole entry) above
row,Binder,EC50 [nM]
1,XDXXDDAAFTXFXT (not fully specified; as printed: Ac-PL3-Asp-Npg-B5-Asp-Asp-Ala-Ala-Phe-Thr-S10-2C1F-BztA-Thr-NH2; stapled) [I-1262],1120
2,XDXXDDAAFTXFXQ (not fully specified; as printed: MeOPr-PL3-Asp-Npg-B5-Asp-Asp-Ala-Ala-Phe-Thr-S8-2C1F-BztA-Gln-NH2; stapled) [I-1261],31
3,Ac-[αAllylPro]D[tBuAla][B5(3)]DTAA[2Nal]T[PyrS2″]F[Bta]S-NH2 (staple 1-4; staple 4-11 (inferred); not fully specified; printed as Ac-PL3-Asp-Npg-B5-Asp-Thr-Ala-Ala-2NapA-Thr-PyrS2-Phe-BztA-Ser-NH2) [I-1267],181
4,"Ac-[αAllylPro]D[tBuAla][B5(33)]DTAAFT[PyrS2]F[Bta]S-NH2 (staple 1-4, 4-11 (inferred); not fully specified; printed as Ac-PL3-Asp-Npg-B5-Asp-Thr-Ala-Ala-Phe-Thr-PyrS2-Phe-BztA-Ser-NH2) [I-1263]",43

# Target: full-length beta-Catenin (Uniprot ID P35222) (Homo sapiens (Human)) (UniProt P35222)
# Assay: fluorescence polarization competition against 5FAM-TCF4(10-53), full-length beta-catenin
# Target sequence in this assay (P35222 whole entry, one chain of several): as the sequence (P35222 whole entry) above
row,Binder,IC50 [nM]
1,"Ac-[αAllylPro]D[tBuAla][B5(4)]D[Phe(3-COOH)]QAFL[PyrS2″][Phe(2-CF3)][5IndA]A-NH2 (staple 1-4, 4-11) [I-2298]",8
2,"Ac-[αAllylPro]D[tBuAla][B5(4)]D[Phe(3-COOH)][(NMe2)GlnR]AFV[PyrS2″][3Thi][Bta]A-NH2 (staple 1-4, 4-11) [I-2303]",5
3,"Ac-[αAllylPro]D[tBuAla][B5(4)]D[Phe(3-COOH)]QAFL[PyrS2][Phe(2-CF3)][Phe(3,4-Me2)]A-NH2 (staple 1-4, 4-11) [I-2294]",16
4,"Ac-[αAllylPro]D[tBuAla][B5(4)]D[Phe(3-COOH)][(Me2diaminobutane)GlnR]AFV[PyrS2″][3Thi][Bta]A-NH2 (staple 1-4, 4-11) [I-2301]",5
5,"Ac-[αAllylPro]D[tBuAla][B5(4)]D[Phe(3-COOH)]QAFV[PyrS2][3Thi][5IndA]A-NH2 (staple 1-4, 4-11) [I-2296]",6
6,"Ac-[αAllylPro]D[tBuAla][B5(4)]D[Phe(3-COOH)][(NMe2)GlnR″]AFL[PyrS2″][2F3MeF″][Bta][(NMe2)GlnR″]-NH2 (staple 1-4, 4-11) [I-2300]",6
7,"Ac-[αAllylPro]D[tBuAla][B5(4)]D[Phe(3-COOH)][(NHEt)GlnR]AFL[PyrS2″][2F3MeF″][Bta][(NHEt)GlnR]-NH2 (staple 1-4, 4-11) [I-2299]",7
8,"Ac-[αAllylPro]D[tBuAla][B5(4)]D[Phe(3-COOH)][(NHEt)GlnR]AFV[PyrS2″][3Thi][Bta]A-NH2 (staple 1-4, 4-11) [I-2302]",5
9,"Isobutyloxycarbonyl-[αAllylPro]D[tBuAla][B5(4)]D[Phe(3-COOH)]AAFL[PyrS2″][Phe(2-Cl)][Bta]A-NH2 (staple 1-4, 4-11) [I-2305]",65
